Data published in US20160237153A1 (DUKE UNIVERSITY, published 2016).

Key:
[1] = molecular target: T1, human NaV1.3 expressed in HEK293 cells (human, UniProt Q9NY46 1-2000); experiment: cell-based or functional assay
[2] = molecular target: T2, human NaV1.4 expressed in HEK293 cells (human, UniProt P35499 1-1836); experiment: cell-based or functional assay
[3] = molecular target: T3, mouse NaV1.5 expressed in HEK293 cells (mouse, UniProt Q9JJV9 1-2019); experiment: cell-based or functional assay
[4] = molecular target: T4, human NaV1.7 expressed in HEK293 cells (human, UniProt Q15858 1-1988); experiment: cell-based or functional assay
[5] = molecular target: T5, rat NaV1.2 expressed in HEK293 cells (rat, UniProt P04775 1-2005); experiment: cell-based or functional assay
T5 sequence (P04775 whole entry): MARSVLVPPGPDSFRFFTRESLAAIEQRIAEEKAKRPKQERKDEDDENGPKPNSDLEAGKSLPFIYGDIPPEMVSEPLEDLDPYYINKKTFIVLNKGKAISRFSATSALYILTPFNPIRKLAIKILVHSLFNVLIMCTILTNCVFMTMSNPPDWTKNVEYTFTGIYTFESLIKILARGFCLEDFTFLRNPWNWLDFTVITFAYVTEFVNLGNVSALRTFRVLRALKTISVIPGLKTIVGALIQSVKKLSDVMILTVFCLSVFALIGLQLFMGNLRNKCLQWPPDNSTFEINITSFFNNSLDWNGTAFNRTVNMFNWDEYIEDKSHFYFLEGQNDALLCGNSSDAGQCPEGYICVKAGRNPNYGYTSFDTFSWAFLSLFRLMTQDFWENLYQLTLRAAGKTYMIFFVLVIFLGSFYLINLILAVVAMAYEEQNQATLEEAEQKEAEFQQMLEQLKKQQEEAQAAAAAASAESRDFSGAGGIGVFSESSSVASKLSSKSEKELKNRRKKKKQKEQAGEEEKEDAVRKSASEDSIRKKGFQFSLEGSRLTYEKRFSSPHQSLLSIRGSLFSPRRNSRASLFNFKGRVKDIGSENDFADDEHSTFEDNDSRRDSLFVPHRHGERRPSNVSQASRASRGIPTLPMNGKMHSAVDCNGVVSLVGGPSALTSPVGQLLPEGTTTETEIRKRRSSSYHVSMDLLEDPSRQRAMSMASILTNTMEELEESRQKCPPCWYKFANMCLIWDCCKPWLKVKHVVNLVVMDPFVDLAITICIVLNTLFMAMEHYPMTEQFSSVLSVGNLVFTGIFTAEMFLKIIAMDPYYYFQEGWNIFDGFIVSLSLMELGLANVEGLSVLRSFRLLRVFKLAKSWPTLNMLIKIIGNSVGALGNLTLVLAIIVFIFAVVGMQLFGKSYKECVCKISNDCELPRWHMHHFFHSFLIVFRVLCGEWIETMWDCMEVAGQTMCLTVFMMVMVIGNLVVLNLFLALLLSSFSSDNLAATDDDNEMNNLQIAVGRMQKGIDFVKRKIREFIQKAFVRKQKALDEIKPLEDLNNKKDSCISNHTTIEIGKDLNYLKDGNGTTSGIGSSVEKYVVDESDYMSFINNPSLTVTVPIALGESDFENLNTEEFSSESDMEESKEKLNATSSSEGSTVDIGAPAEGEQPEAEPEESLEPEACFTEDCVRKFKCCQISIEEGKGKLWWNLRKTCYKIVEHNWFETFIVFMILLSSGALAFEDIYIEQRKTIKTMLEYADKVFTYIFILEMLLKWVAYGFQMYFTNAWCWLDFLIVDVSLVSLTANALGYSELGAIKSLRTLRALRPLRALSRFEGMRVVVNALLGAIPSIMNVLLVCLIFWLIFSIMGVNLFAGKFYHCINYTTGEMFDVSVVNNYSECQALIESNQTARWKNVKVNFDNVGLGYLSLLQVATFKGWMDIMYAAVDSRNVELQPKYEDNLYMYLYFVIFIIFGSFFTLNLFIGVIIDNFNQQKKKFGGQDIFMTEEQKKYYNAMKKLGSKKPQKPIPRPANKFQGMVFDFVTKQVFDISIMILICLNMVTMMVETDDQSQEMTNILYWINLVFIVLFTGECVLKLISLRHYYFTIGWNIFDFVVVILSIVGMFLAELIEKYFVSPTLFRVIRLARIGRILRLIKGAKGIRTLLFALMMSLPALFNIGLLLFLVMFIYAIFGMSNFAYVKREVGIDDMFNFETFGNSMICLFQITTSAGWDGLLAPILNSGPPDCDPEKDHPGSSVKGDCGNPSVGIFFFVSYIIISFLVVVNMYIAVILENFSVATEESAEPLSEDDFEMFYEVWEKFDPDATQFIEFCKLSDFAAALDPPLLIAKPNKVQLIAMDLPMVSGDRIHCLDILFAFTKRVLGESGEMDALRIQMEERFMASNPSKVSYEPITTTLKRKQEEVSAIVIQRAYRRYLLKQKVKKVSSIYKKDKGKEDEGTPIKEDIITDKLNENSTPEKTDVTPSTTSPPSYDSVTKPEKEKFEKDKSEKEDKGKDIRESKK

[6] = molecular target: T6, human NaV1.1 expressed in HEK293 cells (human, UniProt P35498 1-2009); experiment: cell-based or functional assay
[7] = molecular target: T7, mouse NaV1.6 expressed in HEK293 cells (mouse, UniProt Q9WTU3 1-1978); experiment: cell-based or functional assay
[8] = molecular target: T8, rat NaV1.8 expressed in HEK293 cells (rat, UniProt Q62968 1-1956); experiment: cell-based or functional assay
[9] = molecular target: T4, human NaV1.7 expressed in HEK293 cells; experiment: fraction bound = 1 - I/I0 from whole-cell voltage clamp of hNaV1.7 in HEK293 cells, 30 ms pulses to -10 mV from -120 mV at 10 Hz; mean±S.E.M., n=10
[10] = molecular target: T1, human NaV1.3 expressed in HEK293 cells; experiment: cell-based or functional assay; remark: listed apart in the source
[11] = molecular target: T2, human NaV1.4 expressed in HEK293 cells; experiment: cell-based or functional assay; remark: listed apart in the source
[12] = molecular target: T3, mouse NaV1.5 expressed in HEK293 cells; experiment: cell-based or functional assay; remark: listed apart in the source
[13] = molecular target: T4, human NaV1.7 expressed in HEK293 cells; experiment: cell-based or functional assay; remark: listed apart in the source
[14] = molecular target: T5, rat NaV1.2 expressed in HEK293 cells; experiment: cell-based or functional assay; remark: listed apart in the source
[15] = molecular target: T6, human NaV1.1 expressed in HEK293 cells; experiment: cell-based or functional assay; remark: listed apart in the source
[16] = molecular target: T7, mouse NaV1.6 expressed in HEK293 cells; experiment: cell-based or functional assay; remark: listed apart in the source
[17] = molecular target: T8, rat NaV1.8 expressed in HEK293 cells; experiment: cell-based or functional assay; remark: listed apart in the source
[18] = molecular target: T4, human NaV1.7 expressed in HEK293 cells; experiment: apparent KD from whole-cell voltage clamp of hNaV1.7 in HEK293 cells at 10 Hz; fraction bound Y=1-I/I0 fitted to a one-site binding equation; apparent KD from inhibition of peak sodium current (Y=1-I/IO), one-site fit, n=10

T2 sequence (P35499 whole entry): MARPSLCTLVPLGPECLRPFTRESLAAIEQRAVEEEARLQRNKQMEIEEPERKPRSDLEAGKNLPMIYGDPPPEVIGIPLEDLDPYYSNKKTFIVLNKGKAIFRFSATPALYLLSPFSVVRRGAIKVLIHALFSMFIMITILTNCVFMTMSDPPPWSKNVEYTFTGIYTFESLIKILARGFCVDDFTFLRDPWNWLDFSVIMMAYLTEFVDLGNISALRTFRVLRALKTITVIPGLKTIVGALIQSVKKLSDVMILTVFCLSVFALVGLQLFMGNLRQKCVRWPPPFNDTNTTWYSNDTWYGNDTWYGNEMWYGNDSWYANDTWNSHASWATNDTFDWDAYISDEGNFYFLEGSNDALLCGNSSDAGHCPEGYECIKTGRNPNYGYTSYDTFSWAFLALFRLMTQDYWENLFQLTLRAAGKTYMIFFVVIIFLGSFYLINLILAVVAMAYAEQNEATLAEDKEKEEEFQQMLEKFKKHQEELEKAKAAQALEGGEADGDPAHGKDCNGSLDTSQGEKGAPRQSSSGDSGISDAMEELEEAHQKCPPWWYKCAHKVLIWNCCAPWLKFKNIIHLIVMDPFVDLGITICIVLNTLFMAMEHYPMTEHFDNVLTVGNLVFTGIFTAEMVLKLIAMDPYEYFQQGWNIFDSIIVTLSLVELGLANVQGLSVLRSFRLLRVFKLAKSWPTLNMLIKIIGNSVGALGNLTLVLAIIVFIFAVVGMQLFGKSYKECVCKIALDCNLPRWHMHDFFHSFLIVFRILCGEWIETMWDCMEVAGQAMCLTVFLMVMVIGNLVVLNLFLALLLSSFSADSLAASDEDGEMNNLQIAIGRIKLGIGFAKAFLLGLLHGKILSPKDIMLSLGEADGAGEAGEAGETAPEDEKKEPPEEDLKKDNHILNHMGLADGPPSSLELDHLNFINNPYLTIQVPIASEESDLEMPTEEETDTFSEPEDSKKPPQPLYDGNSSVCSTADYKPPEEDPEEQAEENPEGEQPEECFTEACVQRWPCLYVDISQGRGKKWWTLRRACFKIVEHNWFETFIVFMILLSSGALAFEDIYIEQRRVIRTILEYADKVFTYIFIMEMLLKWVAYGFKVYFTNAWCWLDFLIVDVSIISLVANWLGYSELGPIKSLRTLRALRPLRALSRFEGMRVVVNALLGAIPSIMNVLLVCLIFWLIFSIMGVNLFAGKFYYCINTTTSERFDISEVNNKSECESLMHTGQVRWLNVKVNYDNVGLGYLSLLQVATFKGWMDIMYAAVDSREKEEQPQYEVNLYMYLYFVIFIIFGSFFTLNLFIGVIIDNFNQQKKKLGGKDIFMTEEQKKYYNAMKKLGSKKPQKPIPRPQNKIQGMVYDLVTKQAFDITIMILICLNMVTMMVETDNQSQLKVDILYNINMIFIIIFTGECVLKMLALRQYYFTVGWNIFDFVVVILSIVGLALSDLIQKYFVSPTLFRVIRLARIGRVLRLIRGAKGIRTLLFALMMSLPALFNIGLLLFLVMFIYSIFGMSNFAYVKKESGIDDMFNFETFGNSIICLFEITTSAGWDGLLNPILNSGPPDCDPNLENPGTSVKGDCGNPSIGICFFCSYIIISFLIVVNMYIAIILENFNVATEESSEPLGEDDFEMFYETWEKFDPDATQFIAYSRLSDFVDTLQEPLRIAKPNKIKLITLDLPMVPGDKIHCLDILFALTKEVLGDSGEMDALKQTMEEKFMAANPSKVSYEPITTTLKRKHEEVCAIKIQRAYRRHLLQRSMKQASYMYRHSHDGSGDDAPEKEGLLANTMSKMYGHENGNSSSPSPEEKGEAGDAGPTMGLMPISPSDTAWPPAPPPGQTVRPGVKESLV

IC50 (µM), sodium current at 2 Hz [1]: 8.7 µM
Maximum inhibition (%) [1]: 16.2%
Selectivity for Nav1.7 [1]: 1520 fold
IC50 (µM), sodium current at 2 Hz [2]: 7.9 µM
Maximum inhibition (%) [2]: 21.5%
Selectivity for Nav1.7 [2]: 1040 fold
IC50 (µM), sodium current at 2 Hz [4]: 0.0307 µM
Maximum inhibition (%) [4]: 86.9%
Selectivity for Nav1.7 [4]: 1 fold
IC50 (µM), sodium current at 2 Hz [5]: 9 µM
Maximum inhibition (%) [5]: 18.7%
Selectivity for Nav1.7 [5]: 1360 fold
IC50 (µM), sodium current at 2 Hz [6]: 6.3 µM
Maximum inhibition (%) [6]: 20.7%
Selectivity for Nav1.7 [6]: 862 fold
IC50 (µM), sodium current at 2 Hz [7]: 6.3 µM
Maximum inhibition (%) [7]: 44.2%
Selectivity for Nav1.7 [7]: 404 fold
IC50 (µM), sodium current at 2 Hz [8]: 5.2 µM
Maximum inhibition (%) [8]: 22.1%
Selectivity for Nav1.7 [8]: 666 fold
EC50 (read off the curve) [9]: ~0.02 µM
IC50, sodium current at 2 Hz [10]: > 5 µM
IC50, sodium current at 2 Hz [11]: > 5 µM
IC50 of inhibition of human NaV1.7 currents at 0.1 Hz [13]: 0.107 µM
IC50 of inhibition of human NaV1.7 currents at 10 Hz [13]: 0.0167 µM
IC50, sodium current at 2 Hz [14]: > 5 µM
IC50, sodium current at 2 Hz [15]: > 5 µM
fold decrease in efficacy relative to NaV1.7 [16]: ~2 fold
fold decrease in potency relative to NaV1.7 [16]: ~200 fold
IC50, sodium current at 2 Hz [17]: > 5 µM
Kd [18]: 0.0229 µM
B1: 1E16 monoclonal antibody (antibody, IgG1, V domains shown)
VH: QGQMQQSGAELVKPGASVKLSCKTSGFTFSSSYISWLKQKPGQSLEWIAWIYAGTGGTSYNQKFTGKAQLTVDTSSSTAYMQFSSLTTEDSAIYYCARQDGNYRYWYFDVWGAGTTVTVSS
VL: ETTVTQSPASLSMAIGEKVTIRCITSTDIDDDMNWYQQKPGEPPKLLISEGNTLRPGVPSRFSSSGYGTDFVFTIENMLSEDVADYYCLQSDNLPLTFGGGTKLEIK
notes: also called 1E16 mAb; 1E16 Ab
IC50 (µM), sodium current at 2 Hz [3]: 5.6 µM
Maximum inhibition (%) [3]: 19.1%
Selectivity for Nav1.7 [3]: 830 fold
IC50, sodium current at 2 Hz [12]: > 5 µM
